Assay results: patent publication US20240100174A1, “PROTEIN-PEG INTERACTIONS THAT REDIRECT THE THERMAL UNFOLDING PATHWAY OF PEGYLATED HUMAN GALECTIN-3C” (UNIVERSITY OF FLORIDA RESEARCH FOUNDATION, INCORPORATED, priority 2022, published 2024)
Where “and” joins values, the source holds several entries; their conditions need not be identical. Equal values may be shown once.

Experiment: Variable temperature circular dichroism (CD) thermal unfolding
Assay type: physicochemical
Conditions: for fitted melting temperature (Tm): CD at 220 nm
Description: CD spectroscopic data were recorded with an Applied Photophysics™ Chirascan spectrophotometer equipped with a Quantum Northwestern Peltier temperature control device and operating with Chirascan v4.7.0 and Pro-Data™ Viewer software. Samples were prepared in PBS at final concentrations of 10 μM. All samples were contained in 2 mm tapered quartz cuvettes, and a temperature probe was inserted through the cuvette cap to monitor the sample temperature in real time. The following parameters were used for constant temperature experiments: CD signal measured in millidegrees, bandwidth of 1.0 nm, wavelength scan from 200-280 nm, step size of 2.0 nm. Spectra were background subtracted against the sample buffer. For thermal unfolding experiments, a linear thermal ramp was applied from 30° C. to 90° C. at 1° C. per minute. All spectra were measured in triplicate, and data were normalized to account for slight differences in protein concentration.
To calculate melting temperatures of unconjugated Gal3C, Gal3C[T243C], and Gal3C[T243C] variants containing lysine replacements, the normalized data were fit to a Boltzmann sigmoidal function in Origin v8.5. For the data fitting, no parameters were fixed, and the ‘x’ parameter defined as the center of the data was interpreted as the melting temperature (Tm). Variable temperature CD data of PEGylated Gal3C[T243C] and Gal3C[T243C] variants were fit with a sum of two Boltzmann sigmoidal functions, as shown below:
where ‘A1’, ‘A2’, and ‘A3’ represent three plateaus of the CD signal, ‘dx1’ and ‘dx2’ are the change in x between the plateaus for each melting transition, and ‘x1’ and ‘x2’ are the two Tm values extracted by the fit for the first and second unfolding transitions, respectively. Because the third plateau, A3, occurred at temperatures higher than the experimentally accessible range, this value was estimated. A single wavelength for plotting on the y-axis was selected by calculating the wavelength of greatest CD signal change for each PEGylated construct.
To record a CD spectrum of Gal3C[T243C] with free PEG, a stock solution of methoxy-PEG (mPEG) in 1×PBS was added immediately before the experiment to a solution containing protein (20 μM, 1 ×PBS) to a final concentration of 22 μM mPEG. All thermal melt parameters were the same as listed in the above described experiments.
CD spectroscopic data were recorded with an Applied Photophysics Chirascan spectrophotometer equipped with a Quantum Northwestern Peltier temperature control device and operating with Chirascan v4.7.0 and Pro-Data Viewer software, following procedures used in our previous study.^4 Spectra were background subtracted against the sample buffer. For thermal unfolding experiments, a linear thermal ramp was applied from 30° C. to 90° C. at 1° C. per minute with samples concentrated to 10 μM in PBS. All spectra were measured in triplicate, and data were normalized to account for slight differences in protein concentration.
Full wavelength (200-280 nm) CD spectra for each construct (FIG. 43) were used to calculate a wavelength of greatest change (222 or 224 nm) to create single wavelength CD vs. temperature plots (FIG. 30H-J and FIG. 31F-G). The single wavelength CD signal vs. temperature plot of Gal3C[T243C] used data acquired at 220 nm, which was the wavelength of greatest change for the unmodified protein. To calculate melting temperatures, the normalized data were fit to a Boltzmann sigmoidal function in Origin v8.5. For the data fitting, no parameters were fixed, and the ‘x’ parameter defined as the center of the data was interpreted as the melting temperature (Tm).

B1: Gal3C[T243C]: Gal3C variant with a single extrinsic cysteine at position 243; SEQ ID NO: 11 (protein)
chain: MAGPLIVPYNLPLPGGVVPRMLITILGTVKPNANRIALDFQRGNDVAFHFNPRFNENNRRVIVCNTKLDNNWGREERQSVFPFESGKPFKIQVLVEPDHFKVAVNDAHLLQYNHRVKKLNEISKLGISGDIDLTSASYCMILEHHHHHH
fitted melting temperature (Tm) (20 μM protein in the absence of free PEG-OH): 57.5 °C
fitted melting temperature (Tm) (20 μM protein in the presence of 22 μM free PEG-OH): 57.7 °C
Tm1 ± StDev (normalized CD at 220 nm vs. temperature, 3 replicates averaged, ramp 30-90° C. at 1° C. per minute): 58.1 °C and 58.1 ± 0.5 °C
thermal unfolding behaviour / formation of unfolding intermediate (result in words, for polymer conjugates the selected SEC fractions): single cooperative unfolding transition
Tm / Tm1 (values of Summary of Results, Tm for unconjugated protein, Tm1 for PEG conjugate): 58.0 °C
